Assay [1] has as its target T1, human ULBP-2-Fc (R&D systems) (human, UniProt Q9BZM5 26-217, limits assumed).
T1 construct: Bought; not shown: Fc of the bought fusion protein
T1 sequence (looked up): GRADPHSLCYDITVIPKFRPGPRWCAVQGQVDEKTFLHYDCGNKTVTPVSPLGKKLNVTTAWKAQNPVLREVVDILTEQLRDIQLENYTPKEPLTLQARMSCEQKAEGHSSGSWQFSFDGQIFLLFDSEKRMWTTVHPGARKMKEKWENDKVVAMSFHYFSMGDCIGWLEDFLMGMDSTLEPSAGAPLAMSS
The experiment in a line: SPR, antibody injected over immobilized ULBP-2-Fc. On the procedure: (§1) For cross-binding study, the human ULBP-1-Fc (R&D systems*), MICB-Fc (*), ULBP-2-Fc (*) and ULBP-3-Fc (*) recombinant proteins were covalently immobilized respectively on the flow cell one to four of a CM5 sensorchip. Anti-MICA antibodies (at a constant concentration of 10 μg/ml) were injected for 2 minutes at a flow rate of 10 μl/min onto the four flow cells in parallel. After each cycle, Sensorchip was regenerated by a five second injection of appropriate regeneration buffer.
Background: In SPR one partner is held on a chip, and binding of the other changes the refractive index at the surface.

For assay [2], the target named is T2, human ULBP-3-Fc (R&D systems) (human, UniProt Q9BZM4 30-217, limits assumed).
T2 construct: Bought; not shown: Fc of the bought fusion protein
T2 sequence (looked up): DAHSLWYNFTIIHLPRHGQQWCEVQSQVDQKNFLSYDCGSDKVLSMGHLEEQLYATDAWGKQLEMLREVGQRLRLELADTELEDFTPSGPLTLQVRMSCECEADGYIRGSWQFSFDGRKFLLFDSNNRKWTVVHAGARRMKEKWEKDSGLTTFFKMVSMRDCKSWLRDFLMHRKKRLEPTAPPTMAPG
The experiment in a line: SPR, antibody injected over immobilized ULBP-3-Fc. How it is done:
as §1

Assay [3] addresses T3, human ULBP-1-Fc (R&D systems) (human, UniProt Q9BZM6 26-216, limits assumed).
T3 construct: Bought; not shown: Fc of the bought fusion protein
T3 sequence (looked up): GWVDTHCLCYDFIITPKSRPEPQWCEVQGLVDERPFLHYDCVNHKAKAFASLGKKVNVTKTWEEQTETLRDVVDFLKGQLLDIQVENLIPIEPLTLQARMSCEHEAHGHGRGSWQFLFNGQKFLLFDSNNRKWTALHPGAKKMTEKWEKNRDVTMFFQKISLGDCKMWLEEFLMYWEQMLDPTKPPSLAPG
The experiment in a line: SPR, antibody injected over immobilized ULBP-1-Fc. How it is done: as §1

Assay [4] deals with T4, MICA*001 expressed at the cell surface (human, UniProt Q29983 24-297).
T4 construct: the protein on cells also has its transmembrane and cytoplasmic parts (Genbank AAB41060); also called C1R-MICA*001; C1R-MICA*01
T4 sequence: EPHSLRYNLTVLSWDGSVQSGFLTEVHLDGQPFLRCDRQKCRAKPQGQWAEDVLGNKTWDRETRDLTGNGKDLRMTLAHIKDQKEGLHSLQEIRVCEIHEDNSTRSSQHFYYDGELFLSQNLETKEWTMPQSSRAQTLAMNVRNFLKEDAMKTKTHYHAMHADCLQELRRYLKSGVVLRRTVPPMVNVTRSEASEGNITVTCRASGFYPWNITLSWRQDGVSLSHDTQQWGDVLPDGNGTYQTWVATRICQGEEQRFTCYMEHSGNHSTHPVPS
The assay can be described thus: flow cytometry on C1R transfectant cells, 4-parameter logistic fit. On the procedure:
(§2) The binding of antibodies obtained from the first, second and third immunization series (including CHG1-M-MIA-19E9, CHG1-M-MIA-9C10, CHG1-M-MIA-6E4, CHG1-M-MIA-20C6, CHG1-M-MIA-16A8, CHG1-M-MIA-12A10, CHG1-M-MIA-10A7, CHG1-M-MIA-18E8, CHG1-M-MIA-10F3, CHG1-M-MIA-15F9 and CHG1-M-MIA-14B4) were tested for binding to MICA-expressing CR1 transfectant cells C1R-MICA*001, C1R-MICA*004, C1R-MICA*007 and C1R-MICA*008 (Pr. A. Steinle, Eberhard-Karls University Tuebingen, Germany) described in Salih et al. (2003) Blood 102(4): […]. Binding was analyzed by flow cytometry.
(§3) Cells were harvested and stained in PBS 1×/BSA 0.2%/EDTA 2 mM buffer during 30 minutes at 4° C. using a dose-range of the anti-MICA mAbs. After two washes in staining buffer, cells were stained for 30 min at 4° C. with mouse anti-human IgG1-PE monoclonal antibodies (1/11). After two washes, stainings were acquired on a BD FACS Canto II and analyzed using the FlowJo software.
(§4) Antibodies CHG1-M-MIA-19E9, CHG1-M-MIA-9C10, CHG1-M-MIA-6E4, CHG1-M-MIA-20C6, CHG1-M-MIA-12A10, CHG1-M-MIA-10A7, CHG1-M-MIA-18E8, CHG1-M-MIA-10F3, and CHG1-M-MIA-15F9 bound to each of the C1R-MICA*001, C1R-MICA*004, C1R-MICA*007 and C1R-MICA*008 cells (see FIG. 1A for antibodies CHG1-M-MIA-19E9, CHG1-M-MIA-9C10, CHG1-M-MIA-6E4, CHG1-M-MIA-20C6, CHG1-M-MIA-12A10, CHG1-M-MIA-10F3, and FIG. 1B for antibodies, CHG1-M-MIA-18E8, CHG1-M-MIA-15F9, CHG1-M-MIA-10A7). […] EC50 values are shown in Table C in μg/ml (calculated using a 4-parameter logistic fit).
In general terms: Flow cytometry measures light scatter and fluorescence of single cells or particles in a stream.

Assay [5] concerns the target T5, MICA*007 expressed at the cell surface (human, UniProt Q29983 24-297).
T5 construct: also called C1R-MICA*007; C1R-MICA*07
T5 chain: T4 sequence with T24A, K125E
The assay is described as above. How it is done: as §2, §3, §4

The target in assay [6] is T6, MICA*004 expressed at the cell surface (human, UniProt Q29983 24-297).
T6 construct: also called C1R-MICA*004; C1R-MICA*04
T6 chain: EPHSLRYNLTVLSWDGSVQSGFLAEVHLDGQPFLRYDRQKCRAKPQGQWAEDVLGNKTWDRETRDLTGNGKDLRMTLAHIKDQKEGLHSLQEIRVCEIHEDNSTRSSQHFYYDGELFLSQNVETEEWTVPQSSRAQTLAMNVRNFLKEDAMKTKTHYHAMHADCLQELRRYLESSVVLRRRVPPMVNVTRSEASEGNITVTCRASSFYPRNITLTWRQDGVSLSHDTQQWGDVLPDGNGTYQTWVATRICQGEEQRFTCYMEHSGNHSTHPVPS
The description is as above. How it is done: as §2, §3, §4

The target of assay [7] is T7, MICA*008 expressed at the cell surface (human, UniProt Q29983 24-297).
T7 construct: also called C1R-MICA*008; C1R-MICA*08
T7 chain: T6 chain with V122L, S175G, R181T, T213I, Q251R
Described as above. On the procedure:
as §2, §3, §4

Assay [8] deals with T4, MICA*001 expressed at the cell surface. The experiment in a line: cell-based or functional assay.
Assay [9] has as its target T8, recombinant human MICA extracellular domain recombinant-His protein (MICA*001 allele) (human, UniProt Q29983 24-297).
T8 construct: also called MICA*001-His; MICA-His; not shown: His tag
T8 sequence: T4 sequence
The assay can be described thus: SPR (Biacore T100), bivalent mean KD at pH 7.4, MICA*001-His on NTA chip, antibody injected. How it is done:
The binding of 6E4, 20C6 and 16A8 to either recombinant human MICA extracellular domain recombinant protein monomers or dimers (MICA*019 allele-Fc protein or MICA*001-His protein) as well as other NKG2D ligands MICB and ULBP1-2 was analyzed by Surface Plasmon Resonance (SPR) using a Biacore T100 apparatus to obtain monovalent and bivalent affinity, respectively.
Each cycle consisted of three steps. Firstly, the NTA chip was activated with NiSO₄ (500 mM). Secondly, the MICA-His protein (diluted to 10 μg/ml in running buffer HBS-P) was immobilized onto the surface via a 2 min injection at a constant flowrate of 10 μL/min. Then the antibody was injected over the immobilized antigen for 2 min at the flow rate of 40 μl/min. Subsequently, the running buffer was injected for 5 min at 40 μl/min for antibody dissociation analysis. After each cycle, the surface was regenerated by a 60s injection of 0.5M EDTA, pH 8.3 to completely strip the surface of the remaining antigen and antibody. The resulting sensorgrams were analyzed by global fitting using the appropriate model.

For assay [10], the target named is T9, MICB-Fc (R&D Systems 1599-MB) (human, UniProt Q29980 23-298, limits assumed).
T9 construct: Bought; also called human MICB-Fc; not shown: Fc of the bought fusion protein
T9 sequence: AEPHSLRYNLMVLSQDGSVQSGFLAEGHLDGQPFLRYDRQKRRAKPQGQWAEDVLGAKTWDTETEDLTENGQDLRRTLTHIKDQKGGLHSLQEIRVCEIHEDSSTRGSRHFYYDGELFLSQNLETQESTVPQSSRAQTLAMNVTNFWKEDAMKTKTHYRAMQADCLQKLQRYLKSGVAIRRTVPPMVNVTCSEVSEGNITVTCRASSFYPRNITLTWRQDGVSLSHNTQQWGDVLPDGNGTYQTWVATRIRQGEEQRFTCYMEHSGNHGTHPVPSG
The assay can be described thus: SPR, antibody injected over immobilized MICB-Fc. How it is done:
as §1

The next assay has as its target T10, MICA*001-BirA (human, UniProt Q29983 24-297).
T10 construct: also called MICA-BirA; MICA*01-BirA; not shown: BirA tag
T10 sequence: T4 sequence
The assay can be described thus: SPR single cycle kinetics, monovalent mean KD at pH 7.4, antibody captured on Protein-G chip, MICA-BirA injected. On the procedure:
For monovalent affinity measurement, chimeric anti-MICA antibodies were captured onto a Protein-G chip.
Affinities were determined using single cycle kinetics (SCK). SCK cycles were as follows: Successive 120s injections at 30 μl/min of 5 serial dilutions (0.01 to 100 nM) of MICA-His or MICA-BirA in ascending order (or of buffer for the blank injections to be subtracted during the analysis). After the last concentration is injected, complex is left to dissociate for 600s before regeneration by a 10s injection of appropriate regeneration buffer at 40 μl/min. After the regeneration, chip is left to stabilise for 60s in running buffer. Curves are fitted using Biacore T100 Evaluation software.

Where a chain is given by its changes, count along the chain named.

B1: CHG1-M-MIA-9C10 (antibody, human IgG1, V domains shown)
VH: QVQLQQPGAELVRPGTSVNLSCKASGYSFTRYWMNWVKQRPGQGLEWIGMIHPSDSETRLNQKFKDKATLTVDKSSSTAYMQLSSPTSEDSAVYYCGYGNFFYVMDYWGQGTSVTVSS
VL: DILLTQSPAILSVSPGERVSFSCRASQSIGTSIHWYQQRTNGSPRLLIKFASESISGIPSRFSGSGSGTDFTLNINSVESEDIADYYCQQSNFWPFTFGSGTKLEVK
notes: also called chimeric anti-MICA 9C10
Take B1: the binding result in assay [1], in assay [2] and in [3] was “no binding (tested: 10 µg/ml)” in each case. The half-maximal effective concentration (EC50) in assay [4] came to 2.09 µg/mL; in assay [5], 2.83 µg/mL; in [6], 0.13 µg/mL; in assay [7] it was 0.13 µg/mL. The “CDC: EC50 of the increase in dead (7-AAD positive) Raji-MICA*01 cells with human complement” value in assay [8] is 2 µg/mL.

B2: biotin-conjugated mouse antibody 9C10 (antibody, V domains shown)
VH: B1 VH
VL: B1 VL
notes: also called 9C10 (mouse)
In the case of B2, in assay [9], the Kd is 0.00062 nM.

B3: CHG1-M-MIA-14B4 (antibody, V domains shown)
VH: QVQLQQPGAELVRPGASVKLSCKASGYSFTSYWMNWMKQRPGQGLEWIGMIHPSDSETRLNQKFKDKATLTVDKSSSTAYMQLNSPTSEDSAVYYCAREMGPYTLDYWGQGTSVTVSS
VL: B1 VL with E17A, S28N, G30D, F50Y, N74S, F93Y, F96L, S100A, V106L
notes: the VH entry ends with ASTK
In the case of B3, the EC50 in assay [4] came out at 12.7 µg/mL; in assay [6] it was 0.24 µg/mL; in assay [7], 0.3 µg/mL. The binding result in assay [10] is recorded as “no binding (tested: 10 µg/ml)”.

B4: CHG1-M-MIA-12A10 (antibody, human IgG1, V domains shown)
VH: QVQLQQSGADLVRPGASVRLSCRASGYSFTNYWMNWVKQRPGQGLEWIGMIHPSDSETRLNQKFKDKATLTVDKSSNTAYMQLSSPTSEDSAIYYCARDDFFTMDYWGQGTSVTVSS
VL: B1 VL with S28N, G30V, R39S, F50Y, N74T, I83V, F93I, F96L, S100A, V106L
notes: the VH entry ends with ASTK
In turn, B4 displayed a Kd with MICA*001-BirA of 53 nM. The EC50 amounted to 1.3 µg/mL in [4], 1.43 µg/mL in assay [5], 0.26 µg/mL in assay [6] and 0.25 µg/mL in assay [7]. Besides, in [10], the binding result was “no binding (tested: 10 µg/ml)”.

Broadly, the EC50 is the concentration needed to bring the measured effect to its halfway point.

(Values after patent US20200299380A1 (published 2020).)
